Measured values taken from patent US20140377287A1 (published 2014).
Values belong to the molecule of their own block, whether it stands above or below them.

Key:
human Trop-2 [1] = target: T1, human Trop-2 (human, UniProt P09758 27-323); assay: cell binding assay on Trop-2-expressing cells (cell line not stated)
T1 construct: whole, on cells; Type-I transmembrane glycoprotein; also called EGP-1; epithelial glycoprotein-1
T1 sequence (looked up): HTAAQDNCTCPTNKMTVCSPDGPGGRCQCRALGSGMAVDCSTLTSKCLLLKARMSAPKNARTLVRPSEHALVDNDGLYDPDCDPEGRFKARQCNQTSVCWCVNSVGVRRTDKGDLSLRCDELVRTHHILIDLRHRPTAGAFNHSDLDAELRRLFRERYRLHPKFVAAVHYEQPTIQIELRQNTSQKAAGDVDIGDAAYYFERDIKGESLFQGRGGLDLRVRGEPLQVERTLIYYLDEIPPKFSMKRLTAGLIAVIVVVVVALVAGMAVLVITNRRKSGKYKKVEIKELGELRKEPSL

human Trop-2 [2] = target: T1, human Trop-2; assay: cell binding on NCI-N87 cells, anti-mouse-HRP secondary, luminescence, 0.03 to 66 nM, 4 C

- Kd (human Trop-2 [1]): 1.2 nM
Molecule: hRS7-CL2-SN-38 (antibody)

- Kd (human Trop-2 [1]): 1.2 nM
Molecule: hRS7-CL2A-SN-38 (antibody)

- Kd (human Trop-2 [2]): 0.57 nM
B1: murine RS7 (antibody, V domains shown)
VH: VKLQESGPELKKPGETVKISCKASGYTFTNYGMNWVKQAPGKGLKWMGWINTYTGEPTYTDDFKGRFAFSLETSATTAYLQINNLKSEDMATYFCARGGFGSSYWYFDVWGQGTTVTVSS
VL: DIQLTQSHKFMSTSVGDRVSITCKASQDVSIAVAWYQQKPGQSPKLLIYSASYRYTGVPDRFTGSGSGTDFTFTISSVQAEDLAVYYCQQHYITPLTFGAGTKLELK
